B3: yeast 20 S proteasome subunit β3 (PUP3) (other, UniProt P25451 1-205, looked up)
chain: MSDPSSINGGIVVAMTGKDCVAIACDLRLGSQSLGVSNKFEKIFHYGHVFLGITGLATDVTTLNEMFRYKTNLYKLKEERAIEPETFTQLVSSSLYERRFGPYFVGPVVAGINSKSGKPFIAGFDLIGCIDEAKDFIVSGTASDQLFGMCESLYEPNLEPEDLFETISQALLNAADRDALSGWGAVVYIIKKDEVVKRYLKMRQD

What was measured:
[1] = biological target: T1, yeast 20 S proteasome subunit α6 (PRE5) (yeast, UniProt P40302 1-234); assay: DSSO XL-MS of purified yeast 20S proteasome
T1 sequence (looked up): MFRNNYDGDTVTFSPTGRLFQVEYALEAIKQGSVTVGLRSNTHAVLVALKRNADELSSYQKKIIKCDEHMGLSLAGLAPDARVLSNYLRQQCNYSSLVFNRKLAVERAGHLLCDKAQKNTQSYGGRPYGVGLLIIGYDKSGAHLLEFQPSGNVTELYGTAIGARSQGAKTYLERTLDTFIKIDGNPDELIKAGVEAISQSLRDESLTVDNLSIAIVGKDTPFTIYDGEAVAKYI

[2] = biological target: T2, HB-Rpt6 (human, UniProt P62195 2-406); assay: in vivo azide-A-DSBSO XL-MS of HB-tag purified human proteasome
T2 construct: whole, on cells; stably expressed in 293 cells; used for all links whose Bait column says Rpt6; residue numbers count on P62195, not on the tagged construct; also called Rpt6 (bait); HB tagged proteasome subunit Rpt6; not shown: HB (His-bio) tag, written before Rpt6

[3] = biological target: T3, yeast 20 S proteasome subunit α3 (PRE9) (yeast, UniProt P23638 1-258); assay: DSSO XL-MS of purified yeast 20S proteasome
T3 sequence (looked up): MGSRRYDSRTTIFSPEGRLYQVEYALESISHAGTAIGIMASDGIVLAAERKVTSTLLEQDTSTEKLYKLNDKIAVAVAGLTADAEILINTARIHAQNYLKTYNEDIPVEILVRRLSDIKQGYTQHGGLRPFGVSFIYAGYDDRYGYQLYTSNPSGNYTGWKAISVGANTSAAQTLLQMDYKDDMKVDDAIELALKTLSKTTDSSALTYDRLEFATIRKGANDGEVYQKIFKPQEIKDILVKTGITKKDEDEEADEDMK

[4] = biological target: B3; assay: DSSO XL-MS of purified yeast 20S proteasome
[5] = biological target: T4, human proteasome subunit Rpn5 (human, UniProt O00232 2-456); assay: in vivo azide-A-DSBSO XL-MS of HB-tag purified human proteasome
T4 construct: whole, on cells; endogenous, cross-linked inside intact 293 cells, purified with the HB-tagged bait; also called O00232

B1: yeast 20 S proteasome subunit β6 (PRE7) (other, UniProt P23724 20-241, looked up)
chain: QFNPYGDNGGTILGIAGEDFAVLAGDTRNITDYSINSRYEPKVFDCGDNIVMSANGFAADGDALVKRFKNSVKWYHFDHNDKKLSINSAARNIQHLLYGKRFFPYYVHTIIAGLDEDGKGAVYSFDPVGSYEREQCRAGGAAASLIMPFLDNQVNFKNQYEPGTNGKVKKPLKYLSVEEVIKLVRDSFTSATERHIQVGDGLEILIVTKDGVRKEFYELKRD
notes: mature
- binding result [1]: binds

B2: human proteasome subunit α3 (other, UniProt P25789 1-261, looked up)
chain: MSRRYDSRTTIFSPEGRLYQVEYAMEAIGHAGTCLGILANDGVLLAAERRNIHKLLDEVFFSEKIYKLNEDMACSVAGITSDANVLTNELRLIAQRYLLQYQEPIPCEQLVTALCDIKQAYTQFGGKRPFGVSLLYIGWDKHYGFQLYQSDPSGNYGGWKATCIGNNSAAAVSMLKQDYKEGEMTLKSALALAIKVLNKTMDVSKLSAEKVEIATLTRENGKTVIRVLKQKEVEQLIKKHEEEEAKAEREKKEKEQKEKDK
notes: whole, on cells; endogenous, cross-linked inside intact 293 cells, then purified with the HB-tagged bait under denaturing conditions; also called alpha3; alpha-3
- binding result [2]: binds

Binder: B3
- binding result [3]: binds

B4: yeast 20 S proteasome subunit β4 (PRE1) (other, UniProt P22141 1-198, looked up)
chain: MDIILGIRVQDSVILASSKAVTRGISVLKDSDDKTRQLSPHTLMSFAGEAGDTVQFAEYIQANIQLYSIREDYELSPQAVSSFVRQELAKSIRSRRPYQVNVLIGGYDKKKNKPELYQIDYLGTKVELPYGAHGYSGFYTFSLLDHHYRPDMTTEEGLDLLKLCVQELEKRMPMDFKGVIVKIVDKDGIRQVDDFQAQ
- binding result [4]: binds

B5: human proteasome subunit Rpn9 (other, UniProt Q9UNM6 1-376, looked up)
chain: MKDVPGFLQQSQNSGPGQPAVWHRLEELYTKKLWHQLTLQVLDFVQDPCFAQGDGLIKLYENFISEFEHRVNPLSLVEIILHVVRQMTDPNVALTFLEKTREKVKSSDEAVILCKTAIGALKLNIGDLQVTKETIEDVEEMLNNLPGVTSVHSRFYDLSSKYYQTIGNHASYYKDALRFLGCVDIKDLPVSEQQERAFTLGLAGLLGEGVFNFGELLMHPVLESLRNTDRQWLIDTLYAFNSGNVERFQTLKTAWGQQPDLAANEAQLLRKIQLLCLMEMTFTRPANHRQLTFEEIAKSAKITVNEVELLVMKALSVGLVKGSIDEVDKRVHMTWVQPRVLDLQQIKGMKDRLEFWCTDVKSMEMLVEHQAHDILT
notes: whole, on cells; endogenous, cross-linked inside intact 293 cells, purified with the HB-tagged bait; also called Q9UNM6
- binding result [5]: binds
